T1: G9a and GLP (Homo sapiens, UniProt Q96KQ7+Q9H9B1)
T1 sequence (Q96KQ7 2-1210 limits assumed): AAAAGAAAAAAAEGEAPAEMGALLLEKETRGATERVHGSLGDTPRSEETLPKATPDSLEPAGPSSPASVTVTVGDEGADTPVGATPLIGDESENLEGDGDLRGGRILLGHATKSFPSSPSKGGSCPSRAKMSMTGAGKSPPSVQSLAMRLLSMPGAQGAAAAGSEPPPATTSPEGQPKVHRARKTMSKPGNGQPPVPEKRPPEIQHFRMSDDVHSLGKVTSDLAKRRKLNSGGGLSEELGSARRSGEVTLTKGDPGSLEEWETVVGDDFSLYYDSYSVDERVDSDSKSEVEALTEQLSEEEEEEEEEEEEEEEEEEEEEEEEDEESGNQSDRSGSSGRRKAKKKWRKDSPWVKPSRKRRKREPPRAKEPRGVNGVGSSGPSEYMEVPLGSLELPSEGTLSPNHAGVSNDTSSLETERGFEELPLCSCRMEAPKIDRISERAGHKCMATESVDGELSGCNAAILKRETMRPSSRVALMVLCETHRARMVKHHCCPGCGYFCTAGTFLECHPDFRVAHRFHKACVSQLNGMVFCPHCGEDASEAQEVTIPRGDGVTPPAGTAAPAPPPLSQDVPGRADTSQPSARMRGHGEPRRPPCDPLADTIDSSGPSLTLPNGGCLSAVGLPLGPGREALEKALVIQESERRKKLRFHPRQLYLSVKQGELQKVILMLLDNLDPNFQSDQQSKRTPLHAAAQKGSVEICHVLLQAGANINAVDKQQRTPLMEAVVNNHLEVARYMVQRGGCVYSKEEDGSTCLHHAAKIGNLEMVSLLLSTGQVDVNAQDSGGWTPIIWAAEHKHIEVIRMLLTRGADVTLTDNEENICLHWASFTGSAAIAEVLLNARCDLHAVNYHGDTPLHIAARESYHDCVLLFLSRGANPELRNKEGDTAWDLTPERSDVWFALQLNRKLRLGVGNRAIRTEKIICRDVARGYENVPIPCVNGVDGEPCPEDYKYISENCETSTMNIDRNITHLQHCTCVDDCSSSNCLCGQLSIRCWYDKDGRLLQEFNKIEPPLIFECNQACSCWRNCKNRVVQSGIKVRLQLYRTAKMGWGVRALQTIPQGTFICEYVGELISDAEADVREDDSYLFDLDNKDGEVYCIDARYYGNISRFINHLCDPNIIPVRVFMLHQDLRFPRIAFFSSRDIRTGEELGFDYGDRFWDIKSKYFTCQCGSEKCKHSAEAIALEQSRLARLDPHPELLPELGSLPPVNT
T1 sequence (Q9H9B1 2-1298 limits assumed): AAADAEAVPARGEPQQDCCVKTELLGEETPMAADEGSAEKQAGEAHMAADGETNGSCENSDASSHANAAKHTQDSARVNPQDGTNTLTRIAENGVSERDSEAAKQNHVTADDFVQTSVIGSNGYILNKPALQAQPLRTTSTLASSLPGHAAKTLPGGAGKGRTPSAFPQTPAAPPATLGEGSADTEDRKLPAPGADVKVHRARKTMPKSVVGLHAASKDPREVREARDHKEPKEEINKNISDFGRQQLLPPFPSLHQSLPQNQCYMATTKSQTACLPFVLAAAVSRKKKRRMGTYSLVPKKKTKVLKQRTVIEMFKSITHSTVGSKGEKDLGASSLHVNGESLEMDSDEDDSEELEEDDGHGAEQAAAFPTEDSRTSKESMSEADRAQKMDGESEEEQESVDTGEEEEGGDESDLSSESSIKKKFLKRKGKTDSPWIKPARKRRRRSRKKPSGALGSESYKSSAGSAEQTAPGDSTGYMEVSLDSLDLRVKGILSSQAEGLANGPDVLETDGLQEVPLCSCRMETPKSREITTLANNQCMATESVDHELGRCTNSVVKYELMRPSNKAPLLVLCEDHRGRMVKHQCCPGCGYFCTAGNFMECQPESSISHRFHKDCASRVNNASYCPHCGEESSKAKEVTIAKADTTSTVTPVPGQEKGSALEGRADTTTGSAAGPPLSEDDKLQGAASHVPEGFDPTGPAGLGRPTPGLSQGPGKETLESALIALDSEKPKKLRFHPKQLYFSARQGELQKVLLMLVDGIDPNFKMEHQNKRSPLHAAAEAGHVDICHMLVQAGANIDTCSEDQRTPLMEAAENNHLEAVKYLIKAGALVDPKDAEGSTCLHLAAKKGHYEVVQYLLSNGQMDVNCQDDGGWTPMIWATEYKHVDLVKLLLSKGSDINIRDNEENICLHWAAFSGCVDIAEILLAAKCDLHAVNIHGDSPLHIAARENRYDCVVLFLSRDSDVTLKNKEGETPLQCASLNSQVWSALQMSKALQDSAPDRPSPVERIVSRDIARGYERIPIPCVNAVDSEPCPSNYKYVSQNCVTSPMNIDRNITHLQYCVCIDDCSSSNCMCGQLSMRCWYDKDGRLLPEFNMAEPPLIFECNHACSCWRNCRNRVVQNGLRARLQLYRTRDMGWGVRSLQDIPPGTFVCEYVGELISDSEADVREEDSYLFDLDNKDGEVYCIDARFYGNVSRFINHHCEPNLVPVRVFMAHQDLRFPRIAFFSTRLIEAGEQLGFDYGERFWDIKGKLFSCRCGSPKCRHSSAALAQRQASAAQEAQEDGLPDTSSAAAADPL


How the values were obtained:
[1] = system: 3×MBT domain of L3MBTL1; experiment: Triple SILAC pull-down, 3xMBT/3xMBTD355N ratio (cytoplasmic, nuclear and chromatin fractions of 293T cells); format: binding, human; details: SILAC ratio, pull-down 3xMBT vs 3xMBTD355N; for 3xMBT/D355N UNC Heavy: experiment with UNC0638 in heavy SILAC media; for 3xMBT/D355N UNC Light: experiment with UNC0638 in light SILAC media;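 on all read-outs here: proteins quantified with MaxQuant, requiring at least two unique peptides and quantification in both label directions, normalized to the mean of proteins from a digested loading control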
[2] = target: T1, G9a and GLP; experiment: Triple SILAC pull-down after UNC0638 treatment of 293T cells, DMSO/UNC0638 ratio of protein captured by 3×MBT; format: cell-based; parameters: cells were treated for 24 hours with UNC0638 at 2.5 μM or DMSO vehicle control; endogenous in cells; host or cells: HEK 293T; details: for Relative to UNC0638 UNC Heavy / Relative to UNC0638 UNC Light: SILAC ratio DMSO/UNC0638 of protein pulled down with 3xMBT; for Relative to UNC0638 UNC Heavy: UNC0638 in heavy SILAC media; for Relative to UNC0638 UNC Light: UNC0638 in light SILAC media; for Relative to UNC0638 Average: average of UNC Light and UNC Heavy experiments;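 on all read-outs here: mass spectrometry (Q-Exactive) SILAC quantitation, DMSO/UNC0638 ratio computed after subtracting 3×MBTD355N mutant pull-down background, only proteins with at least twofold 3×MBT over mutant signal considered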

Molecule	3xMBT/D355N UNC Heavy [1] [log base 2]	3xMBT/D355N UNC Light [1] [log base 2]	Relative to UNC0638 UNC Heavy [2] [log base 2]	Relative to UNC0638 UNC Light [2] [log base 2]	Relative to UNC0638 Average [2] [log base 2]
PDCD2L (protein, UniProt Q9BRP1 2-358, looked up) Programmed cell death protein …: AAVLKPVLLGLRDAPVHGSPTGPGAWTASKLGGIPDALPTVAAPRPVCQRCGQPLALVVQVYCPLEGSPFHRLLHVFACACPGCSTGGARSWKVFRSQCLQVPEREAQDAQKQGNSLAAEDWCEGADDWGSDTEEGPSPQFTLDFGNDASSAKDVDWTARLQDLRLQDAVLGAAHPVPPGLPLFLPYYICVADEDDYRDFVNLDHAHSLLRDYQQREGIAMDQLLSQSLPNDGDEKYEKTIIKSGDQTFYKFMKRIAACQEQILRYSWSGEPLFLTCPTSEVTELPACSQCGGQRIFEFQLMPALVSMLKSANLGLSVEFGTILVYTCEKSCWPPNHQTPMEEFCIIQEDPDELLFK	2.68	3.19	0.22	0.28	0.25
HNRNPH2 (protein, UniProt P55795 1-449, looked up) Heterogeneous nuclear …: MMLSTEGREGFVVKVRGLPWSCSADEVMRFFSDCKIQNGTSGIRFIYTREGRPSGEAFVELESEEEVKLALKKDRETMGHRYVEVFKSNSVEMDWVLKHTGPNSPDTANDGFVRLRGLPFGCSKEEIVQFFSGLEIVPNGMTLPVDFQGRSTGEAFVQFASQEIAEKALKKHKERIGHRYIEIFKSSRAEVRTHYDPPRKLMAMQRPGPYDRPGAGRGYNSIGRGAGFERMRRGAYGGGYGGYDDYGGYNDGYGFGSDRFGRDLNYCFSGMSDHRYGDGGSSFQSTTGHCVHMRGLPYRATENDIYNFFSPLNPMRVHIEIGPDGRVTGEADVEFATHEDAVAAMAKDKANMQHRYVELFLNSTAGTSGGAYDHSYVELFLNSTAGASGGAYGSQMMGGMGLSNQSSYGGPASQQLSGGYGGGYGGQSSMSGYDQVLQENSSDYQSNLA	1.02	2.68	0.18	0.32	0.25
ZC3HAV1 (protein, UniProt Q7Z2W4 2-902, looked up) Zinc finger CCCH-type …: ADPEVCCFITKILCAHGGRMALDALLQEIALSEPQLCEVLQVAGPDRFVVLETGGEAGITRSVVATTRARVCRRKYCQRPCDNLHLCKLNLLGRCNYSQSERNLCKYSHEVLSEENFKVLKNHELSGLNKEELAVLLLQSDPFFMPEICKSYKGEGRQQICNQQPPCSRLHICDHFTRGNCRFPNCLRSHNLMDRKVLAIMREHGLNPDVVQNIQDICNSKHMQKNPPGPRAPSSHRRNMAYRARSKSRDRFFQGSQEFLASASASAERSCTPSPDQISHRASLEDAPVDDLTRKFTYLGSQDRARPPSGSSKATDLGGTSQAGTSQRFLENGSQEDLLHGNPGSTYLASNSTSAPNWKSLTSWTNDQGARRKTVFSPTLPAARSSLGSLQTPEAVTTRKGTGLLSSDYRIINGKSGTQDIQPGPLFNNNADGVATDITSTRSLNYKSTSSGHREISSPRIQDAGPASRDVQATGRIADDADPRVALVNDSLSDVTSTTSSRVDDHDSEEICLDHLCKGCPLNGSCSKVHFHLPYRWQMLIGKTWTDFEHMETIEKGYCNPGIHLCSVGSYTINFRVMSCDSFPIRRLSTPSSVTKPANSVFTTKWIWYWKNESGTWIQYGEEKDKRKNSNVDSSYLESLYQSCPRGVVPFQAGSRNYELSFQGMIQTNIASKTQKDVIRRPTFVPQWYVQQMKRGPDHQPAKTSSVSLTATFRPQEDFCFLSSKKYKLSEIHHLHPEYVRVSEHFKASMKNFKIEKIKKIENSELLDKFTWKKSQMKEEGKLLFYATSRAYVESICSNNFDSFLHETHENKYGKGIYFAKDAIYSHKNCPYDAKNVVMFVAQVLVGKFTEGNITYTSPPPQFDSCVDTRSNPSVFVIFQKDQVYPQYVIEYTEDKACVIS	2.03	1.92	−0.16	0.65	0.25
SF3B2 (protein, UniProt Q13435 1-895, looked up) Splicing factor 3B subunit 2: MATEHPEPPKAELQLPPPPPPGHYGAWAAQELQAKLAEIGAPIQGNREELVERLQSYTRQTGIVLNRPVLRGEDGDKAAPPPMSAQLPGIPMPPPPLGLPPLQPPPPPPPPPPGLGLGFPMAHPPNLGPPPPLRVGEPVALSEEERLKLAQQQAALLMQQEERAKQQGDHSLKEHELLEQQKRAAVLLEQERQQEIAKMGTPVPRPPQDMGQIGVRTPLGPRVAAPVGPVGPTPTVLPMGAPVPRPRGPPPPPGDENREMDDPSVGPKIPQALEKILQLKESRQEEMNSQQEEEEMETDARSSLGQSASETEEDTVSVSKKEKNRKRRNRKKKKKPQRVRGVSSESSGDREKDSTRSRGSDSPAADVEIEYVTEEPEIYEPNFIFFKRIFEAFKLTDDVKKEKEKEPEKLDKLENSAAPKKKGFEEEHKDSDDDSSDDEQEKKPEAPKLSKKKLRRMNRFTVAELKQLVARPDVVEMHDVTAQDPKLLVHLKATRNSVPVPRHWCFKRKYLQGKRGIEKPPFELPDFIKRTGIQEMREALQEKEEQKTMKSKMREKVRPKMGKIDIDYQKLHDAFFKWQTKPKLTIHGDLYYEGKEFETRLKEKKPGDLSDELRISLGMPVGPNAHKVPPPWLIAMQRYGPPPSYPNLKIPGLNSPIPESCSFGYHAGGWGKPPVDETGKPLYGDVFGTNAAEFQTKTEEEEIDRTPWGELEPSDEESSEEEEEEESDEDKPDETGFITPADSGLITPGGFSSVPAGMETPELIELRKKKIEEAMDGSETPQLFTVLPEKRTATVGGAMMGSTHIYDMSTVMSRKGPAPELQGVEVALAPEELELDPMAMTQKYEEHVREQQAQVEKEDFSDMVAEHAAKQKQKKRKAQPQDSRGGSKKYKEFKF	3.89	3.33	0.17	0.33	0.25

Source: patent publication US20140274782A1, “AFFINITY REAGENTS AND METHODS FOR DETECTION, PURIFICATION, AND PROTEOMIC ANALYSIS OF METHYLATED PROTEINS” (The Board of Trustees of the Leland Stanford Junior …, priority 2013, published 2014)
